Measurements as given in patent US20110300138A1 (published 2011).
Read-outs that look alike come from different tables or passages of the source.

What was measured:
Experiment in all cases: cell-based or functional assay
[1] = target: TSHR with Tyr82 mutated to Ala expressed in CHO cells (human) (UniProt P16473)
[2] = target: TSHR with Ser281 mutated to Ala, expressed in CHO cells (human) (UniProt P16473)
[3] = target: TSHR with Lys183 mutated to Asp expressed in CHO cells (human) (UniProt P16473)
[4] = target: TSHR with Ile60 mutated to Ala, expressed in CHO cells (human) (UniProt P16473)
[5] = target: TSHR with Glu178 mutated to Ala expressed in CHO cells (human) (UniProt P16473)
[6] = target: wild type TSHR expressed in CHO cells (human) (UniProt P16473)
[7] = target: TSHR with Glu107 mutated to Ala expressed in CHO cells (human) (UniProt P16473)
[8] = target: wild type TSHR (human TSH receptor) expressed in CHO cells (human) (UniProt P16473)
[9] = target: TSHR with Glu61 mutated to Ala, expressed in CHO cells (human) (UniProt P16473)
[10] = target: wild type TSHR expressed in CHO cells (human) (UniProt P16473); remark: listed apart in the source
[11] = target: TSHR with Phe134 mutated to Ala, expressed in CHO cells (human) (UniProt P16473)
[12] = target: wild type TSHR expressed in CHO cells (human) (UniProt P16473); remark: listed apart in the source
[13] = target: TSHR with Phe130 mutated to Ala, expressed in CHO cells (human) (UniProt P16473)

5B3 (human monoclonal antibody to GAD, negative control for K1-70)
% inhibition of TSH stimulation; 5B3 10 µg/mL; Experiment 1 [1]: 16% | % inhibition of TSH stimulation; 5B3 10 µg/mL; Experiment 2 [1]: 4% | % inhibition of TSH stimulation; 5B3 100 µg/mL; Experiment 1 [1]: 16% | % inhibition of TSH stimulation; 5B3 100 µg/mL; Experiment 2 [1]: 8% | Cyclic AMP produced; 5B3 10 µg/mL + TSH 3 ng/mL; Experiment 1 [1]: 139 pmol/mL | Cyclic AMP produced; 5B3 10 µg/mL + TSH 3 ng/mL; Experiment 2 [1]: 71.9 pmol/mL | Cyclic AMP produced; 5B3 100 µg/mL + TSH 3 ng/mL; Experiment 1 [1]: 139 pmol/mL | Cyclic AMP produced; 5B3 100 µg/mL + TSH 3 ng/mL; Experiment 2 [1]: 68.5 pmol/mL | Mutated/wild type (%) of cyclic AMP produced; 5B3 10 µg/mL + TSH 3 ng/mL; Experiment 1 [1]: 85% | Mutated/wild type (%) of cyclic AMP produced; 5B3 10 µg/mL + TSH 3 ng/mL; Experiment 2 [1]: 96% | Mutated/wild type (%) of cyclic AMP produced; 5B3 100 µg/mL + TSH 3 ng/mL; Experiment 1 [1]: 95% | Mutated/wild type (%) of cyclic AMP produced; 5B3 100 µg/mL + TSH 3 ng/mL; Experiment 2 [1]: 99% | % inhibition of TSH stimulation; 5B3 10 µg/mL; Experiment 1 [2]: 19% | % inhibition of TSH stimulation; 5B3 10 µg/mL; Experiment 2 [2]: 4% | % inhibition of TSH stimulation; 5B3 100 µg/mL; Experiment 1 [2]: 11% | % inhibition of TSH stimulation; 5B3 100 µg/mL; Experiment 2 [2]: 0% | Mutated/wild type (%) of cyclic AMP produced; test sample 5B3 10 µg/mL + TSH (3 ng/mL); Experiment 1 [2]: 67% | Mutated/wild type (%) of cyclic AMP produced; test sample 5B3 10 µg/mL + TSH (3 ng/mL); Experiment 2 [2]: 80% | Mutated/wild type (%) of cyclic AMP produced; test sample 5B3 100 µg/mL + TSH (3 ng/mL); Experiment 1 [2]: 71% | Mutated/wild type (%) of cyclic AMP produced; test sample 5B3 100 µg/mL + TSH (3 ng/mL); Experiment 2 [2]: 87% | % inhibition of TSH stimulation; 5B3 10 µg/mL [3]: 11% | % inhibition of TSH stimulation; 5B3 100 µg/mL [3]: 0% | Cyclic AMP produced; 5B3 10 µg/mL + TSH 3 ng/mL [3]: 105 pmol/mL | Cyclic AMP produced; 5B3 100 µg/mL + TSH 3 ng/mL [3]: 128 pmol/mL | Mutated/wild type (%) of cyclic AMP produced; 5B3 10 µg/mL + TSH 3 ng/mL [3]: 112% | Mutated/wild type (%) of cyclic AMP produced; 5B3 100 µg/mL + TSH 3 ng/mL [3]: 117% | % inhibition of TSH stimulation; 5B3 10 µg/mL; Experiment 1 [4]: 0% | % inhibition of TSH stimulation; 5B3 10 µg/mL; Experiment 2 [4]: 17% | % inhibition of TSH stimulation; 5B3 100 µg/mL; Experiment 1 [4]: 14% | % inhibition of TSH stimulation; 5B3 100 µg/mL; Experiment 2 [4]: 0% | Mutated/wild type (%) of cyclic AMP produced; 5B3 10 µg/mL + TSH 3 ng/mL; Experiment 1 [4]: 58% | Mutated/wild type (%) of cyclic AMP produced; 5B3 10 µg/mL + TSH 3 ng/mL; Experiment 2 [4]: 53% | Mutated/wild type (%) of cyclic AMP produced; 5B3 100 µg/mL + TSH 3 ng/mL; Experiment 1 [4]: 50% | Mutated/wild type (%) of cyclic AMP produced; 5B3 100 µg/mL + TSH 3 ng/mL; Experiment 2 [4]: 62% | % inhibition of TSH stimulation; 5B3 10 µg/mL; Exp 1 [5]: 0% | % inhibition of TSH stimulation; 5B3 10 µg/mL; Exp 2 [5]: 0% | % inhibition of TSH stimulation; 5B3 100 µg/mL; Exp 1 [5]: 0% | % inhibition of TSH stimulation; 5B3 100 µg/mL; Exp 2 [5]: 3% | Cyclic AMP produced; 5B3 10 µg/mL + TSH 3 ng/mL; Exp 1 [5]: 57.6 pmol/mL | Cyclic AMP produced; 5B3 10 µg/mL + TSH 3 ng/mL; Exp 2 [5]: 55 pmol/mL | Cyclic AMP produced; 5B3 100 µg/mL + TSH 3 ng/mL; Exp 1 [5]: 57 pmol/mL | Cyclic AMP produced; 5B3 100 µg/mL + TSH 3 ng/mL; Exp 2 [5]: 45 pmol/mL | Mutated/wild type (%) of cyclic AMP produced; 5B3 10 µg/mL + TSH 3 ng/mL; Exp 1 [5]: 88% | Mutated/wild type (%) of cyclic AMP produced; 5B3 10 µg/mL + TSH 3 ng/mL; Exp 2 [5]: 55% | Mutated/wild type (%) of cyclic AMP produced; 5B3 100 µg/mL + TSH 3 ng/mL; Exp 1 [5]: 87% | Mutated/wild type (%) of cyclic AMP produced; 5B3 100 µg/mL + TSH 3 ng/mL; Exp 2 [5]: 46% | % inhibition of TSH stimulation; 5B3 10 µg/mL [6]: 0% | % inhibition of TSH stimulation; 5B3 10 µg/mL; Exp 1 [6]: 0% | % inhibition of TSH stimulation; 5B3 10 µg/mL; Exp 2 [6]: 0% | % inhibition of TSH stimulation; 5B3 10 µg/mL; Experiment 1 [6]: 0% | % inhibition of TSH stimulation; 5B3 10 µg/mL; Experiment 2 [6]: 0% | % inhibition of TSH stimulation; 5B3 100 µg/mL [6]: 0% | % inhibition of TSH stimulation; 5B3 100 µg/mL; Exp 1 [6]: 0% | % inhibition of TSH stimulation; 5B3 100 µg/mL; Exp 2 [6]: 0% | % inhibition of TSH stimulation; 5B3 100 µg/mL; Experiment 1 [6]: 5% | % inhibition of TSH stimulation; 5B3 100 µg/mL; Experiment 2 [6]: 0% | Cyclic AMP produced; 5B3 10 µg/mL + TSH 3 ng/mL [6]: 85.3 pmol/mL | Cyclic AMP produced; 5B3 10 µg/mL + TSH 3 ng/mL; Exp 1 [6]: 65.7 pmol/mL | Cyclic AMP produced; 5B3 10 µg/mL + TSH 3 ng/mL; Exp 2 [6]: 100 pmol/mL | Cyclic AMP produced; 5B3 10 µg/mL + TSH 3 ng/mL; Experiment 1 [6]: 163 pmol/mL | Cyclic AMP produced; 5B3 10 µg/mL + TSH 3 ng/mL; Experiment 2 [6]: 73.7 pmol/mL | Cyclic AMP produced; 5B3 100 µg/mL + TSH 3 ng/mL [6]: 81.6 pmol/mL | Cyclic AMP produced; 5B3 100 µg/mL + TSH 3 ng/mL; Exp 1 [6]: 65.5 pmol/mL | Cyclic AMP produced; 5B3 100 µg/mL + TSH 3 ng/mL; Exp 2 [6]: 98.1 pmol/mL | Cyclic AMP produced; 5B3 100 µg/mL + TSH 3 ng/mL; Experiment 1 [6]: 146 pmol/mL | Cyclic AMP produced; 5B3 100 µg/mL + TSH 3 ng/mL; Experiment 2 [6]: 68.9 pmol/mL | % inhibition of TSH stimulation; 5B3 10 µg/mL ([6]; record 2): 0% | % inhibition of TSH stimulation; 5B3 10 µg/mL; Experiment 1 ([6]; record 2): 4% | % inhibition of TSH stimulation; 5B3 10 µg/mL; Experiment 2 ([6]; record 2): 0% | % inhibition of TSH stimulation; 5B3 100 µg/mL ([6]; record 2): 0% | % inhibition of TSH stimulation; 5B3 100 µg/mL; Experiment 1 ([6]; record 2): 0% | % inhibition of TSH stimulation; 5B3 100 µg/mL; Experiment 2 ([6]; record 2): 0% | Cyclic AMP produced; 5B3 10 µg/mL + TSH 3 ng/mL ([6]; record 2): 93.7 pmol/mL | Cyclic AMP produced; 5B3 100 µg/mL + TSH 3 ng/mL ([6]; record 2): 109 pmol/mL | % inhibition of TSH stimulation; 5B3 10 µg/mL [7]: 15% | % inhibition of TSH stimulation; 5B3 100 µg/mL [7]: 17% | Cyclic AMP produced; 5B3 10 µg/mL + TSH 3 ng/mL [7]: 70.9 pmol/mL | Cyclic AMP produced; 5B3 100 µg/mL + TSH 3 ng/mL [7]: 66.8 pmol/mL | Mutated/wild type (%) of cyclic AMP produced; 5B3 10 µg/mL + TSH 3 ng/mL [7]: 83% | Mutated/wild type (%) of cyclic AMP produced; 5B3 100 µg/mL + TSH 3 ng/mL [7]: 82% | % inhibition of TSH stimulation; 5B3 10 µg/mL [8]: 1% | % inhibition of TSH stimulation; 5B3 10 µg/mL; Experiment 1 [8]: 0% | % inhibition of TSH stimulation; 5B3 10 µg/mL; Experiment 2 [8]: 0% | % inhibition of TSH stimulation; 5B3 100 µg/mL [8]: 0% | % inhibition of TSH stimulation; 5B3 100 µg/mL; Experiment 1 [8]: 2% | % inhibition of TSH stimulation; 5B3 100 µg/mL; Experiment 2 [8]: 0% | % inhibition of TSH stimulation; 5B3 10 µg/mL [9]: 0% | % inhibition of TSH stimulation; 5B3 100 µg/mL [9]: 9% | Mutated/wild type (%) of cyclic AMP produced; 5B3 10 µg/mL + TSH 3 ng/mL [9]: 68% | Mutated/wild type (%) of cyclic AMP produced; 5B3 100 µg/mL + TSH 3 ng/mL [9]: 55% | % inhibition of TSH stimulation; 5B3 10 µg/mL [10]: 0% | Cyclic AMP produced; 5B3 10 µg/mL + TSH 3 ng/mL [10]: 131 pmol/mL | Cyclic AMP produced; 5B3 100 µg/mL + TSH 3 ng/mL [10]: 112 pmol/mL | % inhibition of TSH stimulation; 5B3 10 µg/mL [11]: 9% | % inhibition of TSH stimulation; 5B3 100 µg/mL [11]: 0% | Cyclic AMP produced; 5B3 10 µg/mL + TSH 3 ng/mL [11]: 101 pmol/mL | Cyclic AMP produced; 5B3 100 µg/mL + TSH 3 ng/mL [11]: 116 pmol/mL | Mutated/wild type (%) of cyclic AMP produced; 5B3 10 µg/mL + TSH 3 ng/mL [11]: 77% | Mutated/wild type (%) of cyclic AMP produced; 5B3 100 µg/mL + TSH 3 ng/mL [11]: 103% | % inhibition of TSH stimulation; 5B3 10 µg/mL [12]: 2% | % inhibition of TSH stimulation; 5B3 100 µg/mL [12]: 0% | Cyclic AMP produced; 5B3 10 µg/mL + TSH 3 ng/mL [12]: 78.2 pmol/mL | Cyclic AMP produced; 5B3 100 µg/mL + TSH 3 ng/mL [12]: 86.9 pmol/mL | % inhibition of TSH stimulation; 5B3 10 µg/mL [13]: 8% | % inhibition of TSH stimulation; 5B3 100 µg/mL [13]: 6% | Cyclic AMP produced; 5B3 10 µg/mL + TSH 3 ng/mL [13]: 111 pmol/mL | Cyclic AMP produced; 5B3 100 µg/mL + TSH 3 ng/mL [13]: 114 pmol/mL | Mutated/wild type (%) of cyclic AMP produced; 5B3 10 µg/mL + TSH 3 ng/mL [13]: 142% | Mutated/wild type (%) of cyclic AMP produced; 5B3 100 µg/mL + TSH 3 ng/mL [13]: 131%
